According to patent US20160152995A1, “METHODS AND COMPOSITIONS TO IMPROVE THE SPREAD OF CHEMICAL SIGNALS IN PLANTS” (PIONEER HI-BRED INTERNATIONAL, INC., priority 2013, published 2016):

B1: L8-3E05 (protein)
chain: MARLDKSKVINSALELLNEVGIEGLTTRKLAQKLGVEQPTLYWHVKNKRALLDALAIEMMDRHQTHYCPLEGESWQDFLRNNAKSLRCALLSHRDGAKVCLGTRWTEQQYESAENMLAFLTQQGFSLENALYALQAVRIFTLGCVLFDQESQVAKEERETPTTDSMPPLLRQAWELKDHQGAEPAFLFGLELIIRGLEKQLKRESGS
modifications: Sulfonylurea responsive repressor
B2: L8-1A05 (protein)
chain: MARLDKSKVINSALELLNEVGIEGLTTRKLAQKLGVEQPTLYWHVKNKRALLDALAIEMMDRHQTHYSPLEGESWQDFLRNNAKSCRRALLSHRDGAKVCLGTRWTEQQYESAENMLAFLTQQGFSLENALYAVDAVRVFTLGAVLFDQESQVAKEERETPTTDSMPPLLRQAWELKDHQGAEPAFLFGLELIIAGLEKQLKAESGS
modifications: Sulfonylurea responsive repressor
B3: L8-1E04 (protein)
chain: MARLDKSKVINSALELLNEVGIEGLTTRKLAQKLGVEQPTLYWHVKNKRALLDALAIEMMDRHQTHYLPLEGESWQDFLRNNAKSCRNALLSHRDGAKVCLGTRWTEQQYESAENMLAFLTQQGFSLENALYAVSAVRVFTLGAVLYDQESQVAKEERETPTTDSMPPLLRQAWELKDHQGAEPAFLFGLELIIRGLEKQLKAESGS
modifications: Sulfonylurea responsive repressor
B4: L8-3F08 (protein)
chain: MARLDKSKVINSALELLNEVGIEGLTTRKLAQKLGVEQPTLYWHVKNKRALLDALAIEMMDRHQTHYSPLEGESWQDFLRNNAKSCRNALLSHRDGAKVVLGTRWTEQQYESAENMLAFLTQQGFSLENAMYALEAARIFTLGWVLFDQESQVAKEERETPTTDSMPPLLRQAWELKDHQGAEPAFLFGLELIIRGLEKQLKSESGS
modifications: Sulfonylurea responsive repressor
B5: L8-3A04 (protein)
chain: MARLDKSKVINSALELLNEVGIEGLTTRKLAQKLGVEQPTLYWHVKNKRALLDALAIEMMDRHQTHYSPLEGESWQDFLRNNAKSCRRALLSHRDGAKVCLGTRWTEQQYESAENMLAFLTQQGFSLENALYAVSAVRVFTLGAVLFDQESQVAKEERETPTTDSMPPLLRQAWELKDHQGAEPAFLFGLELIIRGLEKQLKRECGS
modifications: Sulfonylurea responsive repressor
B6: L8-1A03 (protein)
chain: MARLDKSKVINSALELLNEVGIEGLTTRKLAQKLGVEQPTLYWHVKNKRALLDALAIEMMDRHQTHYSPLEGESWQDFLRNNAKSCRNALLSHRDGAKVCLGTRWTEQQYESAENMLAFLTQQGFSLENALYALDAVRVFTLGAVLFDQESQVAKEERETPTTDSMPPLLRQAWELKDHQGAEPAFLFGLELIIAGLEKQLKRESGS
modifications: Sulfonylurea responsive repressor
B7: L8-3A07 (protein)
chain: MARLDKSKVINSALELLNEVGIEGLTTRKLAQKLGVEQPTLYWHVKNKRALLDALAIEMMDRHQTHYSPLEGESWQDFLRNNAKSMRCALLSHRDGAKVCLGTRWTEQQYESAENMLAFLTQQGFSLENALYAVSAVRVFTLGWVLFDQESQVAKEERETPTTDSMPPLLRQAWELKDHQGAEPAFLFGLELIIAGLEKQLKRESGS
modifications: Sulfonylurea responsive repressor
B8: L8-3A06 (protein)
chain: MARLDKSKVINSALELLNEVGIEGLTTRKLAQKLGVEQPTLYWHVKNKRALLDALAIEMMDRHQTHYLPLEGESWQDFLRNNAKSCRNALLSHRDGAKVCLGTRWTEQQYESAENMLAFLTQQGFSLENALYAVSAVRVFTLGAVLFDQESQVAKEERETPTTDSMPPLLRQAWELKDHQGAEPAFLFGLELIISGLEKQLKRESGS
modifications: Sulfonylurea responsive repressor
B9: L8-3A05 (protein)
chain: MARLDKSKVINSALELLNEVGIEGLTTRKLAQKLGVEQPTLYWHVKNKRALLDALAIEMMDRHQTHYSPLEGESWQDFLRNNAKSCRNALLSHRDGAKVCLGTRWTEQQYESAENMLAFLTQQGFSLENALYAVSAVRVFTLGAVLFDQESQVAKEERETPTTDSMPPLLRQAWELKDHQGAEPAFLFGLELIISGLEKQLKSESGS
modifications: Sulfonylurea responsive repressor
B10: L8-2H01 (protein)
chain: MARLDKSKVINSALELLNEVGIEGLTTRKLAQKLGVEQPTLYWHVKNKRALLDALAIEMMDRHQTHYSPLEGESWQDFLRNNAKSCRRALLSHRDGAKVCLGTRWTEQQYESAENMLAFLTQQGFSLENALYALEAVRVFTLGAVLFDQESQVAKEERETPTTDSMPPLLRQAWELKDHQGAEPAFLFGLELIIRGLEKQLKRESGS
modifications: Sulfonylurea responsive repressor
B11: L8-1A06 (protein)
chain: MARLDKSKVINSALELLNEVGIEGLTTRKLAQKLGVEQPTLYWHVKNKRALLDALAIEMMDRHQTHYSPLEGESWQDFLRNNAKSCRRAVLSHRDGAKVCLGTRWTEQQYESAENMLAFLTQQGFSLENALYAVSAVRVFTLGAVLFDQESQVAKEERETPTTDSMPPLLRQAWELKDHQGAEPAFLFGLELIIAGLEKQLKRESGS
modifications: Sulfonylurea responsive repressor

Tested on: E. coli assay strain Km3
Type: cell-based
Conditions: library L8 hits, M9 Xgal colony assay; for IND = induction with 200 ppb Cs at 24 hrs (blue colony color intensity thru ImageJ analysis): 200 ppb Chlorsulfuron; for F. IND = fold induction: induction with 200 ppb Cs at 24 hrs/repression at 48 hrs: ratio IND (200 ppb Cs, 24 hrs) / REP (48 hrs)
Procedure: Library L6 was assembled, rescued, ligated into pVER7314, transformed into E. coli KM3 and plated out onto LB carbenicillin/kanamycin, and carbenicillin only control media as before. Library plates were then picked into 42 384-well microtiter plates (˜16,000 clones) containing 60 μl LB carbenicillin (Cb) broth per well. After overnight growth at 37° C. the cultures were stamped onto M9 assay plates containing no inducer, 0.2 ppm, and 2.0 ppm chlorsulfuron as test inducer. Following incubation at 30° C. for ˜48 hrs, putative hits responding to chlorsulfuron treatment as determined by increased blue colony color were re-arrayed into six 96-well microtiter plates and used to stamp a fresh set of M9 assay plates to confirm the above results. For a more detailed analysis of the relative induction by chlorsulfuron, digital photographs were taken of the plates after various time points of incubation at 30° C. and colony color intensity measured using the digital image analysis freeware program ImageJ (Rasband, US National Institutes of Health, Bethesda, Md., USA, rsb.info.nih.gov/ij/, 1997-2007). […] From this analysis sequence-activity relationships were derived. […] Briefly, C at position 100, and Q at positions 108 and 109 strongly correlated with activation, while R at position 138, L at position 170, and A or G at position 173 were highly preferred in clones with the lowest background activity. […] This information will aid in the design of further libraries to improve responsiveness to chlorsulfuron.
Library L8 construction and screening. Fourth round shuffling incorporated the best diversity from Rd3 shuffling (BB1860) as well as computational diversity (Table 14). As diversity was very high the library oligo mix was spiked into the parental hit variant oligo mix (5, 10, and 25% mixes) to titer down the number of residue changes per clone. In addition, to varying residues for Cs activity, seven residues (C68, C86, C88, C121, C144, C195, and C203) were varied with TetR family phylogenetic substitutions in an attempt to reduce the number of cysteine residues in the repressor. The PCR assembled libraries were cloned Sac1/Asc1 into pVER7334. This plasmid encodes PBAD promoter controlled expression of a plant optimized TetR DNA binding domain fused to the wt ligand binding domain of TetR(B) encoded by native Tn10 sequence on a Sac1 to Asc1 fragment. Approximately 15,000 clones were screened for blue colony color on the M9 Xgal assay plates +/−200 ppb Chlorsulfuron (Cs). Clones were ranked by ratio of color with inducer after 24 hrs incubation over colony color without inducer for 48 hrs of incubation. The sequence trend in the overall larger population of hits (first re-array) was that L55, R104, W105 and L170 were maintained while the C144A substitution was highly preferred. Sequence trends within the hit population were then noted with respect to repression, induction and fold induction (which corrects for leakiness).
Mutagenesis reactions were transformed into library strain Km3 and 96 colonies tested for substitution by DNA sequence analysis. Substitutions representing each possible residue at each position were then re-arrayed in triplicate onto M9 X-gal assay plates with 0, 20 and 200 ppb Chlorsulfuron. Plates were incubated at 37° C. for 24 and 48 hrs prior to imaging. Residue substitutions were then ranked by activation (emphasis on 20 ppb Cs) and repression characteristics (emphasis on 48 hr time point). The mutation with the greatest impact on activity was substitution of residue N82 to phenylalanine or tyrosine. […] All other preferred substitutions shown in Table 18 either improved repression or improved sensitivity to inducer without compromising repressor function. Certain residues were indispensible to function such as R104, W105, and W174 as substitutions were not allowed. Other residue positions such as R138 and K177 were also flagged as critical since functional substitutions were extremely limited. […]

Molecule	IND = induction with 200 ppb Cs at 24 hrs (blue colony color intensity thru ImageJ analysis)	F. IND = fold induction: induction with 200 ppb Cs at 24 hrs/repression at 48 hrs	REP = repression measured without inducer after 48 hrs (blue colony color intensity thru ImageJ analysis)
B1	1.4	3.4	0.4
B2	10.8	2.5	4.4
B3	1.5	2.5	0.6
B4	1.5	2.7	0.6
B5	0.5	3.3	0.1
B6	8.6	3.1	2.8
B7	0.7	2.9	0.2
B8	0.3	2.6	0.1
B9	0.3	3.3	0.1
B10	12.9	2.7	4.8
B11	2.1	2.7	0.8
